Values of other authors, collected in paper PMC6255930.

Target: hemopexin (Homo sapiens) (UniProt P02790)
Sequence of UniProt P02790 (P02790 24-462): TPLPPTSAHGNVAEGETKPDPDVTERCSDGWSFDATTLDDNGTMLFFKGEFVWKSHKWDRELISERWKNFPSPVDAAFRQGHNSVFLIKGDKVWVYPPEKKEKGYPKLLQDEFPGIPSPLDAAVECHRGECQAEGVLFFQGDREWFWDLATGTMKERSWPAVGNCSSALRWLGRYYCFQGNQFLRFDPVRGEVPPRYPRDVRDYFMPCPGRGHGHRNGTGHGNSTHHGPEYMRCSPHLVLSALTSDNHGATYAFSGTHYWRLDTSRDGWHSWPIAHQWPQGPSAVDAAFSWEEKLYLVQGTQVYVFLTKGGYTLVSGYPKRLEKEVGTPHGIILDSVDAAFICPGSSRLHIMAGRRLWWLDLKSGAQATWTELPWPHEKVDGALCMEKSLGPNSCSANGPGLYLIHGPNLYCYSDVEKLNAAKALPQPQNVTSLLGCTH

Kd: 4 nM
Substance: LRP1 (from UniProt Q07954)
